Data set [1] addresses T1, Internalin A (InlA) (Listeria monocytogenes, UniProt P0DJM0 P0DJM0:36-770).
T1 sequence: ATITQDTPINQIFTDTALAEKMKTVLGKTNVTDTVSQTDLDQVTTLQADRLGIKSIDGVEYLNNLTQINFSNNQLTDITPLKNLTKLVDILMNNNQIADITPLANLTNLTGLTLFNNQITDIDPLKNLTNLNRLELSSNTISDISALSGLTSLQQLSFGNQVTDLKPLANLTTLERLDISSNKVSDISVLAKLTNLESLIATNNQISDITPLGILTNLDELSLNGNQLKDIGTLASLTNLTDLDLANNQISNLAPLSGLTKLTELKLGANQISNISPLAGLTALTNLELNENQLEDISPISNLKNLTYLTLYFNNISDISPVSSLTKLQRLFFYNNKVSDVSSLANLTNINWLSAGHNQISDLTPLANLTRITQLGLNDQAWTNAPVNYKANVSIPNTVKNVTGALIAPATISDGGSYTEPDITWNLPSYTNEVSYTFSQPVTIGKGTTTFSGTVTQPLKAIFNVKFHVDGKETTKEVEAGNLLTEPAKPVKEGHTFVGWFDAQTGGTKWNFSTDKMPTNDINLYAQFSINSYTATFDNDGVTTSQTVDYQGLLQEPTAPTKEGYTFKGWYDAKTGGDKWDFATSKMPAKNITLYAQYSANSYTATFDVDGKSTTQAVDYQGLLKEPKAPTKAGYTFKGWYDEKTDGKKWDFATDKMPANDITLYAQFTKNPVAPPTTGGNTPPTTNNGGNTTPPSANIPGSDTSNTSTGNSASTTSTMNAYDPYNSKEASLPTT
In words: ELONA; strong ELISA signal compared to library. Particulars: tags: His-tag. How it is done: A nickel-coated microplate (HisSorb, Qiagen) was used to bind 500 ng his-tagged inlA, peptide D or 0610 (Listeria monocytogenes-specific non-internalin cell wall protein) to the plate as per manufacturer's directions. Biotinylated aptamer or aptamer library (5 ng/μL) was heated to 95° C. for 3 minutes and quickly cooled to 4° C. for 5 minutes before application to each well. The biotinylated aptamer or aptamer library was incubated with the bound proteins in the HisSorb plate overnight at 4° C. with gentle shaking. Wells were then washed four times with 200 μL PBS-T. Streptavidin-horseradish peroxidase was added to the wells for 30 minutes at room temperature with gentle shaking. The wells were washed as described previously before development with TMB (Pierce). The reactions were stopped with 1M H₂SO₄ and absorbance was measured at 450 nm using a ThermoMax microplate reader (Molecular Devices). In FIG. 6, the initial aptamer library was used as a negative control, and the data represents the average±S.D. of n=3. […] The amount of selected aptamer bound to the particular proteins was determined by absorbance measured. The data represents the average±S.D. of n=3.
For orientation: An ELISA detects its analyte on a solid surface through an enzyme-linked reagent.

Data set [2] concerns the target T1, Internalin A (InlA). In words: competition; competitive ELISA, sigmoidal fit. The conditions noted are these: tags: His-tag. As for the experimental part: A specified amount of internalin A (500 ng) was coated on the plate. 5 ng/uL biotinylated aptamer A8 (SEQ ID NO:21) was incubated with increasing amounts of non-biotinylated aptamer A8 and then applied to the coated plates. Using GraphPad Prism 4 software, the Sigmoidal model (equation: a+(b−a)/(1+10̂(x−c))) was used to determine EC50.

ATCAGCAACAAGTGTGGGTAAGGGGAGGGCGGGAATGGGATGATGAT (ssDNA) [InlA aptamer SEQ 23]: the binding result in data set [1] is listed as “binds”.

Usually EC50 stands for the concentration at which the effect is half-maximal. On to ATCCATGGGGCGGAGATGAGGGGGAGGAGGGCGGGTACCCGGTTGAT (ssDNA) [A8], for which the EC50 in data set [2] came out at 0.543 µM. Regarding ATCGGATGTGGGCAGGGGGGGGTGGGAAACGATTACAGACACAAGAT (ssDNA) [InlA aptamer SEQ 24], in data set [1], the binding result is given as “binds”.

As to ATCGGGTTATAGTTAGCGGGTAGGGGAGGGAGGGTAGATAGCTCGAT (ssDNA) [InlA aptamer SEQ 25], the binding result in data set [1] is recorded as “binds”. On the same count and under the same terms, the result for ATCTAGGACTGGGTGGGAAGGGATGGGAAAAATGTCCGCGCCTCGAT (ssDNA) [InlA aptamer SEQ 22] reads “binds”.

(Values after patent US20090264512, “NUCLEIC ACID LIGANDS CAPABLE OF BINDING TO […] OR INTERNALIN A” (published 2009).)
